Test results from PMC4066579 (Nature methods, 2009).
Like-named read-outs stand apart in the source and are kept apart here.

Legend:
native MS [1] = molecular target: the molecule itself; experiment: native MS
native MS [2] = molecular target: the molecule itself; experiment: native MS; remark: listed apart in the source

B1: MacB (natural protein, UniProt P75831 1-648, looked up)
chain: MTPLLELKDIRRSYPAGDEQVEVLKGISLDIYAGEMVAIVGASGSGKSTLMNILGCLDKATSGTYRVAGQDVATLDADALAQLRREHFGFIFQRYHLLSHLTAEQNVEVPAVYAGLERKQRLLRAQELLQRLGLEDRTEYYPAQLSGGQQQRVSIARALMNGGQVILADEPTGALDSHSGEEVMAILHQLRDRGHTVIIVTHDPQVAAQAERVIEIRDGEIVRNPPAIEKVNVTGGTEPVVNTVSGWRQFVSGFNEALTMAWRALAANKMRTLLTMLGIIIGIASVVSIVVVGDAAKQMVLADIRSIGTNTIDVYPGKDFGDDDPQYQQALKYDDLIAIQKQPWVASATPAVSQNLRLRYNNVDVAASANGVSGDYFNVYGMTFSEGNTFNQEQLNGRAQVVVLDSNTRRQLFPHKADVVGEVILVGNMPARVIGVAEEKQSMFGSSKVLRVWLPYSTMSGRVMGQSWLNSITVRVKEGFDSAEAEQQLTRLLSLRHGKKDFFTWNMDGVLKTVEKTTRTLQLFLTLVAVISLVVGGIGVMNIMLVSVTERTREIGIRMAVGARASDVLQQFLIEAVLVCLVGGALGITLSLLIAFTLQLFLPGWEIGFSPLALLLAFLCSTVTGILFGWLPARNAARLDPVDALARE
Question: With B1 as the protein, how does the “stoichiometry N” value (native MS [1]) read?
Answer: 2

B2: EmrE-EFE(1–113), unmodified (free N-terminal methionine) (natural protein)
chain: MNPYIYLGGAILAEVIGTTLMKFSEGFTRLWPSVGTIICYCASFWLLAQTLAYIPTGIAYAIWSGVGIVLISLLSWGFFGQRLDLPAIIGMMLICAGVLIINLLSRSTPHEFE
Question: How did the “stoichiometry N” value (native MS [2]) turn out when B2 was run?
Answer: 2

B3: EmrE-EFE(1–113), N-terminally formylated (natural protein)
chain: B2 chain
modifications: formylation at an N-terminal methionine
Question: For B3, which “stoichiometry N” value (native MS [2]) is on record?
Answer: 2

B4: MexB (natural protein, Pseudomonas aeruginosa strain PAO1, UniProt P52002 1-1046, looked up)
chain: MSKFFIDRPIFAWVIALVIMLAGGLSILSLPVNQYPAIAPPAIAVQVSYPGASAETVQDTVVQVIEQQMNGIDNLRYISSESNSDGSMTITVTFEQGTDPDIAQVQVQNKLQLATPLLPQEVQRQGIRVTKAVKNFLMVVGVVSTDGSMTKEDLSNYIVSNIQDPLSRTKGVGDFQVFGSQYSMRIWLDPAKLNSYQLTPGDVSSAIQAQNVQISSGQLGGLPAVKGQQLNATIIGKTRLQTAEQFENILLKVNPDGSQVRLKDVADVGLGGQDYSINAQFNGSPASGIAIKLATGANALDTAKAIRQTIANLEPFMPQGMKVVYPYDTTPVVSASIHEVVKTLGEAILLVFLVMYLFLQNFRATLIPTIAVPVVLLGTFGVLAAFGFSINTLTMFGMVLAIGLLVDDAIVVVENVERVMAEEGLSPREAARKSMGQIQGALVGIAMVLSAVFLPMAFFGGSTGVIYRQFSITIVSAMALSVIVALILTPALCATMLKPIEKGDHGEHKGGFFGWFNRMFLSTTHGYERGVASILKHRAPYLLIYVVIVAGMIWMFTRIPTAFLPDEDQGVLFAQVQTPPGSSAERTQVVVDSMREYLLEKESSSVSSVFTVTGFNFAGRGQSSGMAFIMLKPWEERPGGENSVFELAKRAQMHFFSFKDAMVFAFAPPSVLELGNATGFDLFLQDQAGVGHEVLLQARNKFLMLAAQNPALQRVRPNGMSDEPQYKLEIDDEKASALGVSLADINSTVSIAWGSSYVNDFIDRGRVKRVYLQGRPDARMNPDDLSKWYVRNDKGEMVPFNAFATGKWEYGSPKLERYNGVPAMEILGEPAPGLSSGDAMAAVEEIVKQLPKGVGYSWTGLSYEERLSGSQAPALYALSLLVVFLCLAALYESWSIPFSVMLVVPLGVIGALLATSMRGLSNDVFFQVGLLTTIGLSAKNAILIVEFAKELHEQGKGIVEAAIEACRMRLRPIVMTSLAFILGVVPLAISTGAGSGSQHAIGTGVIGGMVTATVLAIFWVPLFYVAVSTLFKDEASKQQASVEKGQ
Question: B4 was tested. Which “stoichiometry N” value (native MS [1]) did it give?
Answer: 3
